Here are results for four molecules from patent publication US20250034258A1 (Merck Sharp & Dohme, published 2025).

One assay addresses T1, human PD-1 (human, UniProt Q15116 25-288).
T1 construct: whole, on cells; also called hPD-1; CHO-K1.hPD-1
As to the kind of experiment: flow cytometry on CHO-K1.hPD-1 cells, anti-FLAG detection. In general terms: A flow cytometer gives signals particle by particle.

The target in the next assay is T2, human PD-L1 (human, UniProt Q9NZQ7 19-290).
T2 construct: whole, on cells; also called hPD-L1; CHO-K1.hPD-L1
The experiment in a line: flow cytometry on CHO-K1.hPD-L1 cells, anti-FLAG detection. The procedure: CHO-K1.hPD-L1 cells were resuspended in Stain Buffer (PBS, 2% FBS, 0.05% sodium azide) and 1E5 cells/well were transferred to a 96-well V-bottom plate and centrifuged. Cells were suspended in 100 μL/well serial diluted VHH or anti-PD-L1 antibody (atezolizumab) in Stain Buffer and incubated for 30 minutes at 4° C. VHH binding was detected by resuspending the samples subsequently in 100 μL/well mouse a-FLAG antibody (Sigma: F1804) and detected with PE-labeled goat anti-mouse IgG (Jackson ImmunoResearch: 115-116-071) as detection antibody and 5 nM TOPRO3 (Molecular Probes: T3605) as dead dye. Between each step, the cells were collected via centrifugation for 5 minutes at 200×g and washed three times with 100 μL/well Stain Buffer.

T2 sequence (Q9NZQ7 19-290): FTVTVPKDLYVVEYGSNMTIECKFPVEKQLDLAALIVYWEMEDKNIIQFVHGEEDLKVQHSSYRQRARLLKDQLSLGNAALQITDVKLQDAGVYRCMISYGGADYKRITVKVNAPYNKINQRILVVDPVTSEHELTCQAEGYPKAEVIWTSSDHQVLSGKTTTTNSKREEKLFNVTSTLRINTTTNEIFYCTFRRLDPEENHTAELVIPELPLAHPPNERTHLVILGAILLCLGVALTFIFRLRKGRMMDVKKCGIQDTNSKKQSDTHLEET
T1 sequence (Q15116 25-288): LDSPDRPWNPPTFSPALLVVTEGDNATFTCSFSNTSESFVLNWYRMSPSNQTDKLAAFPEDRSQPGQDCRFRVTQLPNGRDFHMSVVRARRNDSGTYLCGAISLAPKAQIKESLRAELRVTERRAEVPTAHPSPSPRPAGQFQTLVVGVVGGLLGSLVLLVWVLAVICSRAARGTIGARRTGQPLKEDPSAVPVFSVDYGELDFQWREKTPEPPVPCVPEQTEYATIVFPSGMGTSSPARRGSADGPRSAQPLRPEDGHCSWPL

B1: α-PD-1 VHH (VHH)
VHH: EVQLVESGGGLVQAGDSLRLSCVASGRTFSSYHMGWFRQAPGKEREFVAAIPRSGSNIGYSAFVKDRGTISRDNAKNTVYLQINNLAPDDTAVYYCAAKSAAGYYSGVVFTADYDYTYWGQGTLVTVSS
notes: also called anti-PD-1 VHH
With B1, the binding result with human PD-1 is “binds”.

B2: α-PD-L1 VHH 3 (VHH)
VHH: EVQLVESGGGLVQPGGSLRLSCAASGRTLSNHAMHWFRQAPGKEREFVSAITWSDGETYYEDSVKGRFTISRDNAKDTAYLEMQSLKPEDTAVYYCAAKMGGPTSIPGLVEYWGQGTLVTVSS
For B2, the binding result with human PD-L1 is listed as “binds”.

B3: α-PD-L1 VHH (VHH)
VHH: EVQLVESGGGLVQAGGSLSVSCAPSGRTFSNYAMGWFRQAPGKEREFVARISGGGGYTAYADSVKGRFTIARDNAKNTVYLQMNSLKPEDTAVYYCAAGSIDSRQPYDSTRRYDYWGQGTLVTVSS
notes: also called anti-PD-L1 VHH
Turning to B3, the binding result in the assay with human PD-L1 is “binds”.

B4: α-PD-L1 VHH 2 (VHH)
VHH: EVQLVESGGGLKQAGGSLRLSCTASARASTYIAMAWFRRTPGKAREFVAAITWSGGHTTYADSMKGRFTISRDNAKNTVYLHLNALQPEDAGVYYCAANQRNTVGPSEGAYPYWGQGTLVTVSS
For the molecule B4, the binding result in the assay with human PD-L1 is on record as “binds”.
